Data taken from patent publication US20090023672, “AGE-2 APTAMER” (KURUME UNIVERSITY, published 2009).

molecular target: AGE-2 (glyceraldehyde-derived advanced glycation end product of human serum albumin) (Homo sapiens, UniProt P02768 P02768:25-609, HSA glycated with D-glyceraldehyde at 37 C for 7 days, dialysed against PBS); test: AGE-2 fluorescence attenuation, 100 ug/mL AGE-2, 25 nM aptamer; conditions: tags: HSA from Sigma; immobilised on SulfoLink beads for SELEX
Procedure: First, for measuring fluorescence properties of AGE-2, wavelengths of AGE-2 were determined for excitation and […] using a spectrofluorometer (FP-777: JASCO Corporation). […] Subsequently, the fluorescence intensity was measured with 25 to 100 μg/mL of AGE-2 at the excitation wavelength of 380 nm, and a calibration curve was prepared (FIG. 3A).
Then, to each aptamer (SEQ ID NOs: 1 to 15), 100 μg/mL of the AGE-2 was added at a final concentration of 25 to 100 nM, and the fluorescence intensity was measured (see FIGS. 3B and C). Based on attenuation in the fluorescence intensity of AGE-2 when the aptamer was added at 25 nM, the weight (ng) of the bound AGE-2 was calculated per mole (nmol) of the aptamer.

Sequence of AGE-2 (glyceraldehyde-derived advanced glycation end product of human serum albumin) (P02768 25-609, stated change not applied, one chain of several): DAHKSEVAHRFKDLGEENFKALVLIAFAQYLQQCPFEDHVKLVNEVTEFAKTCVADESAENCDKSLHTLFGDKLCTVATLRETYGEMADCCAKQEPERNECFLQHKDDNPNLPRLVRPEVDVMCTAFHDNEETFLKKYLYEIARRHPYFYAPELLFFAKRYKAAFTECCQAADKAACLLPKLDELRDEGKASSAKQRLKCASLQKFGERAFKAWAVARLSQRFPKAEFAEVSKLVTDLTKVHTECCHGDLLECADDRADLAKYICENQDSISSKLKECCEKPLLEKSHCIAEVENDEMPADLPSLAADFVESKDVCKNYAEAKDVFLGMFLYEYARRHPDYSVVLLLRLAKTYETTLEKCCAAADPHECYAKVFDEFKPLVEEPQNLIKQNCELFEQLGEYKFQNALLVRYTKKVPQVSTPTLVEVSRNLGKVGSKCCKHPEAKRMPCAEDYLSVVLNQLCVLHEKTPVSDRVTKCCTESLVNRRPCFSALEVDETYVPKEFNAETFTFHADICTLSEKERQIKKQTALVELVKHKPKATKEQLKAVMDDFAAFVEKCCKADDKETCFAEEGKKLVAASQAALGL

Row | Binder | binding signal
1 | AGE-2 aptamer 7 (ssDNA) DNA: CCACACTGCACTAAACCAGCGTCCCGGACCATCACAACCTCTGCCCACTAGCCCCT | 146 ng AGE-2 bound per nmol aptamer
2 | AGE-2 aptamer 2 (ssDNA) DNA: ACCACTGCACGACCCCCACCAGTCCCACTCGCAGCGTCCATGGCCCCCACGCCCCA | 175 ng AGE-2 bound per nmol aptamer
3 | AGE-2 aptamer 13 (ssDNA) DNA: CCTCAACACACCTCTAACCAACCCTCAGCCCAGCACAACACCCCCCAAACCGACAC | 175 ng AGE-2 bound per nmol aptamer
4 | AGE-2 aptamer 5 (ssDNA) DNA: CAAGCGCTCCATCCACCGACATACCTACCAAACACTCTCCTTGCCCATAAAACCAC | 143 ng AGE-2 bound per nmol aptamer
5 | AGE-2 aptamer 9 (ssDNA) DNA: TAACTCACTCCATACTCACTTGCTGATTCGCCAACAACACACCCTTAAACAGTCCC | 117 ng AGE-2 bound per nmol aptamer
6 | AGE-2 aptamer 6 (ssDNA) DNA: CCCGCCATTCCCCTACATAACACCTACCCATCTCCCTTCCCAGTTAATCACCGC | 202 ng AGE-2 bound per nmol aptamer
7 | AGE-2 aptamer 14 (ssDNA) DNA: CTGAATACCAACGTACCCCCTCCCAAGTCCCCCTACCCACGCTAAACTCAACCTCA | 158 ng AGE-2 bound per nmol aptamer
8 | AGE-2 aptamer 15 (ssDNA) DNA: TACAGCCCCCCAACCCACCACCGCCGTAGATAACCACCCACCAACGATATCCCACT | 271 ng AGE-2 bound per nmol aptamer
9 | AGE-2 aptamer 8 (ssDNA) DNA: AACTAGCCCGAGCCACAATCCCATAACAAGCGTGACCACACTATCCTGTCTTCCC | 175 ng AGE-2 bound per nmol aptamer
10 | AGE-2 aptamer 10 (ssDNA) DNA: ATAACCCCGACGTACACGCCAACTATGCCCACAACCCGCCATAACCCACCACCTTC | 134 ng AGE-2 bound per nmol aptamer
11 | AGE-2 aptamer 11 (ssDNA) DNA: CCCAAGCACAATAGCCACACCCACGACCCACCCTCATATTCCGACCACGCTCCC | 137 ng AGE-2 bound per nmol aptamer
12 | AGE-2 aptamer 4 (ssDNA) DNA: CCAGCCTCGATACCATACCCACCAACCCAACCAGACTCCACACACCCACGCGTCTC | 210 ng AGE-2 bound per nmol aptamer
13 | AGE-2 aptamer 3 (ssDNA) DNA: CGCCCCCACACCACCGCCACGACCCCACAATCCCCCGAGGTCCCCCGCGTCCACAC | 260 ng AGE-2 bound per nmol aptamer
